In patent US20240100176A1 (Eli Lilly, published 2024):

Legend:
[1] = target: T1, human IL-4Rα on cells (human PBMC B cells and CD4+ T cells, Daudi cells, HEK-Blue IL-4/IL-13 cells, myeloid … (human, UniProt P24394 26-825)); assay: flow cytometry on human PBMCs, CD20 B cells, Alexa Fluor 647 labelled antibody, percent IL-4Rα positive cells
T1 sequence: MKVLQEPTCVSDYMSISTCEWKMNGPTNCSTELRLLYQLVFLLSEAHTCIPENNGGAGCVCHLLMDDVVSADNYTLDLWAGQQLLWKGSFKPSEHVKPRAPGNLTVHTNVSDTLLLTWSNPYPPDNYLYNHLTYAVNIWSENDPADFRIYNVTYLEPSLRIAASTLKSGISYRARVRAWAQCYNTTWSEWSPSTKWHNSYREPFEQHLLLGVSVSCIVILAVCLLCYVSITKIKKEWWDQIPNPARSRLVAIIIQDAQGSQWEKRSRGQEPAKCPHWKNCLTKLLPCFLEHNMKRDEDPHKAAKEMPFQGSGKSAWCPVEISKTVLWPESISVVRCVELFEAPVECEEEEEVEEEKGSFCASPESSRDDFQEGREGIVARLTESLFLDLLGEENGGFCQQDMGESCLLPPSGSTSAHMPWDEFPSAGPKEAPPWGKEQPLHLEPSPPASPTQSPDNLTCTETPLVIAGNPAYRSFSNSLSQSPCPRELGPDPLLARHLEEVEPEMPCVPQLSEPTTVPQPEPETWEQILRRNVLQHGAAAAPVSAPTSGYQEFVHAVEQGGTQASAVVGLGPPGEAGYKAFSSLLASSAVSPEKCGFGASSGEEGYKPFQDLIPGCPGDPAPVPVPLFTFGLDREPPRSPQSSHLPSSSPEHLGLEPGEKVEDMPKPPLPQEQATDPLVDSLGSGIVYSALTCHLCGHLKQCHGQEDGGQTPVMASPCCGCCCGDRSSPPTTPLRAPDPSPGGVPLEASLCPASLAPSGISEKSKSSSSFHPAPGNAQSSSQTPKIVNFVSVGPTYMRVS
Experimental: Example 3b. Binding to B cells and T cells: Binding of the exemplified anti-human IL-4Rα antibodies to B cells and T cells was tested in a Fluorescence Activated Cell Sorting (FACS) assay. […] Freshly isolated cells PBMCs were resuspended at 2×10⁶ cells/mL and allowed to rest for 15 minutes at room temperature, then plated at 100 μL/well into a round bottom 96-well plate (COSTAR®) and washed with FACS buffer (PBS containing 2% fetal bovine serum from Corning®). Exemplified anti-human IL-4Rα antibodies and the respective control IgG antibodies conjugated to Alexa Fluor® 647 according to manufacturer's protocol (Thermo Fisher Scientific) were added to the wells at 66.67 nM and diluted 4-fold in duplicate. Equivalent volume of 2× antibody cocktail containing: Human TruStain FcX™. FITC anti-human CD3 Antibody, Alexa Fluor® 700 anti-human CD4 Antibody (all from Biolegend®) and CD20 Monoclonal Antibody (2H7), PerCP-Cyanine5.5 (Thermo Fisher Scientific) was then added to the wells. Cells were incubated at 4° C. for 30 minutes, washed twice with FACS buffer and resuspended in a final volume of 100 μL FACS buffer. Viability dye, Sytox™ blue (Thermo Fisher Scientific), was added and the samples were analyzed via a flow cytometer (LSRFortessa™ X-20; BD BIOSCIENCES). Data analysis was performed using FlowJo software and statistical analysis was performed using GraphPad Prism 9. […]

[2] = target: T2, hexahistidine tagged human IL-4Rα ECD F41A (human, UniProt P24394 26-232); assay: capture ELISA: Ab1 on anti-human IgG Fc, His-tagged receptor at 1 µg/mL, anti-His HRP
T2 construct: not shown: hexahistidine tag
Excerpt: (§1) Example 2d. […] Briefly, thirty surface amino acid residue substitutions were introduced individually into hexahistidine tagged human IL-4Rα extra cellular domain (ECD) as follows: K2D, E6R, K22D, P26R, T31R, F41A, L42G, L43G, E45R, E52R, G56R, D66R, A71R, Q82G, K87D, E94R, H107A, D108R, P124R, D125R, D143R, R148D, L155R, R160D, S164R, S168R, Q181R, P192R, K195D, or H197G. Each mutant protein having a single amino acid residue substitution as described above was transiently expressed in CHO cells and purified using standard immobilized metal affinity chromatography techniques. […] The plates were then washed 3 times with PBST and the exemplified human IL-4Rα antibody was added to the wells at a final concentration of 1 μg/mL in PBS-casein and incubated for 1 hour at room temperature. The plates were washed 3 times with PBST, the IL-4Rα mutant proteins were serially diluted 5-fold from 1 μg/mL for 3 points. in PBS-casein and added to the plate at 50 μL/well and incubated for 1 hour at room temperature. The plates were washed 3 times with PBST and a 1000-fold dilution of anti-histidine tag antibody HRP conjugate (R&D Systems, Cat. #MAB050H) in PBS-casein was added and incubated for 45 minutes at room temperature. The plates were washed 3 times, TMB substrate (Pierce, Cat. #34028) was added per manufacturer instructions, the reaction was quenched with H₂SO₄, and absorbance was read at 450 nm on an ELISA plate reader.

[3] = target: T3, hexahistidine tagged human IL-4Rα ECD P192R (human, UniProt P24394 26-232); assay: capture ELISA: Ab1 on anti-human IgG Fc, His-tagged receptor at 0.2 µg/mL, anti-His HRP
T3 construct: not shown: hexahistidine tag
T3 sequence (P24394 26-232 P217R): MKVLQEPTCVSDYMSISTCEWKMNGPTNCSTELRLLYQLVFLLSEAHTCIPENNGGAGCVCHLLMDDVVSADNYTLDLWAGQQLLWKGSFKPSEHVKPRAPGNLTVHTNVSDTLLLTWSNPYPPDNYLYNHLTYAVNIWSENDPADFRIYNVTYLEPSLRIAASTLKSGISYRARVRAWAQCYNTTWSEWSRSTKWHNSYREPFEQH
Excerpt: as §1

[4] = target: T4, hexahistidine tagged human IL-4Rα ECD Q181R (human, UniProt P24394 26-232); assay: as above
T4 construct: not shown: hexahistidine tag
T4 sequence (P24394 26-232 Q206R): as the sequence (P24394 26-232 P217R) above, with Q181R, R192P counted along it
Excerpt: as §1

[5] = target: T5, hexahistidine tagged human IL-4Rα ECD G56R (human, UniProt P24394 26-232); assay: as above
T5 construct: not shown: hexahistidine tag
T5 sequence (P24394 26-232 G81R): as the sequence (P24394 26-232 P217R) above, with G56R, R192P counted along it
Excerpt: as §1

[6] = target: T6, hexahistidine tagged human IL-4Rα ECD H197G (human, UniProt P24394 26-232); assay: as above
T6 construct: not shown: hexahistidine tag
T6 sequence (P24394 26-232 H222G): as the sequence (P24394 26-232 P217R) above, with R192P, H197G counted along it
Excerpt: as §1

[7] = target: T7, hexahistidine tagged human IL-4Rα ECD S164R (human, UniProt P24394 26-232); assay: as above
T7 construct: not shown: hexahistidine tag
T7 sequence (P24394 26-232 S189R): as the sequence (P24394 26-232 P217R) above, with S164R, R192P counted along it
Excerpt: as §1

EC50 [1]: 150 pM | ELISA (OD450) [2]: 1.76 OD450 | ELISA (OD450) [3]: 1.75 OD450 | ELISA (OD450) [4]: 1.71 OD450 | ELISA (OD450) [5]: 1.7 OD450 | ELISA (OD450) [6]: 1.6 OD450 | ELISA (OD450) [7]: 1.77 OD450
B1: anti-human IL-4Rα antibody Ab1 (antibody, human IgG4 S228P, kappa)
heavy: QVQLVESGGGLVQPGGSLRLSCVASGFTFSHSSMNWVRQAPGKGLEWVSYISRATGAVYYADSVKGRFTISRDNAKNSLYLQMNSLRDEDTAVYYCAREPVFDYWGQGTLVTVSSASTKGPCVFPLAPCSRSTSESTAALGCLVKDYFPEPVTVSWNSGALTSGVHTFPAVLQSSGLYSLSSVVTVPSSSLGTKTYTCNVDHKPSNTKVDKRVESKYGPPCPPCPAPEFLGGPSVFLFPPKPKDTLMISRTPEVTCVVVDVSQEDPEVKFNWYVDGVEVHNAKTKPREEQFNSTYRVVSVLTVLHQDWLNGKEYKCKVSNKGLPSSIEKTISKAKGQPREPQVYTLPPSREEMTKNQVSLTCLVKGFYPSDICVEWESNGQPENNYKTTPPVLDSDGSFFLYSRLTVDKSRWQQGNVFSCSVMHEALHNHYTQKSLSLSLG
light: DIQMTQSPSAMSASVGDRVTITCRASQDISNYLAWFQQKPGKVPTRLIYAASSLQSGVPSRFSGSGSGTEFTLTISSLQPEDFATYYCLQWSSYPRTFGQGTKVEIKRTVAAPSVFIFPPSDEQLKSGTASVVCLLNNFYPREAKVQWKVDNALQSGNSQESVTEQDSKDSTYSLSSTLTLSKADYEKHKVYACEVTHQGLSSPVTKSFNRGEC
notes: human kappa light chain; also called anti-human IL-4Rα Ab1; unconjugated Ab1
